Experiment [1] has as its target T1, human CS1 on CS1pos OPM2 multiple myeloma cells (human (endogenous in OPM2)) (UniProt Q9NQ25).
T1 sequence: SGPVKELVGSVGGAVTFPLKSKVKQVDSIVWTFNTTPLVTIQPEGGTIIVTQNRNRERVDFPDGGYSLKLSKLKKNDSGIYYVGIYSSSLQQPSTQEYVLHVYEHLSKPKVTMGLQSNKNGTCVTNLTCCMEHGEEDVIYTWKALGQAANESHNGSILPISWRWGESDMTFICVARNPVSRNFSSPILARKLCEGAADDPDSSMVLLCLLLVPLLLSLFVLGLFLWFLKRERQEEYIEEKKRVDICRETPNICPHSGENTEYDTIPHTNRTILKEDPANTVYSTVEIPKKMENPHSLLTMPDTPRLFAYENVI

Experiment [2] concerns the target T2, recombinant human CS1 protein (CS1-(his)C) (human) (UniProt Q9NQ25).
T2 sequence: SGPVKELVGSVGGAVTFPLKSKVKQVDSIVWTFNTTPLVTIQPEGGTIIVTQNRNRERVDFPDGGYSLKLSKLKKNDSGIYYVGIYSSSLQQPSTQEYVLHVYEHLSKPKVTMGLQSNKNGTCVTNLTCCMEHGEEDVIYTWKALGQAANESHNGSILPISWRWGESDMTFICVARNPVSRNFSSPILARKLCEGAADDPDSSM
The experiment can be described thus: SPR; Biacore T200; recombinant CS1 amine-coupled on a CM5 chip; VHH 100 nM to 3.125 nM in HBS pH 7.4, 25°C; association 180 s, dissociation 300 s; fit '1:1 binding with drift and RI2'; n=1.

In experiment [3] the target is T1, human CS1 on CS1pos OPM2 multiple myeloma cells (human (endogenous in OPM2)). In words: flow cytometry on cells; purified VHH at 200 nM, 1 h at 4°C, on CS1pos OPM2 cells; detected by mouse anti-His IgG1 mAb and APC anti-mouse IgG1 mAb; ΔMFI against the non-targeting control VHH R3B23 at 200 nM; n=1.

B1: VHH-2 (VHH)
VHH: DVQLVESGGGLVQPGDSLRLSCTASGRTFENNFMGWFRQPPGKEREFVAAVGWNTGRGYYTDSVKGRFTISRDSAKNTVYLQMNSLKPEDTAVYSCNAPLQSLDRRLPGPYWGQGTQVTVSS
With B1, the tumor uptake of the 99mTc-labelled VHH in subcutaneous CS1pos OPM2 tumors in mice, ex vivo at 90 min p.i. (n=3) in experiment [1] came to 0.48 % IA/g. In experiment [2], the Kd was found to be 49.7 nM, the koff came out at 0.0318 s⁻¹ and the on-rate constant (kon) turned out to be 641000 M⁻¹ s⁻¹. The ΔMFI [VHH] = 200 nM in experiment [3] came to 6.09.

These data come from PMC11077437.
